Measurements from US20120276102A1 (Pfizer, published 2012).

Key:
[1] = target: T1, human gamma (γ) common chain expressed on CHO cells (human, UniProt P31785 23-369); test: cell-based ELISA on CHO cells transiently expressing human gamma common chain; HRP anti-human IgG, A450
T1 construct: whole, on cells; Control protein; also called human IL-2R-γ common subunit; human γ-common
T1 sequence (looked up): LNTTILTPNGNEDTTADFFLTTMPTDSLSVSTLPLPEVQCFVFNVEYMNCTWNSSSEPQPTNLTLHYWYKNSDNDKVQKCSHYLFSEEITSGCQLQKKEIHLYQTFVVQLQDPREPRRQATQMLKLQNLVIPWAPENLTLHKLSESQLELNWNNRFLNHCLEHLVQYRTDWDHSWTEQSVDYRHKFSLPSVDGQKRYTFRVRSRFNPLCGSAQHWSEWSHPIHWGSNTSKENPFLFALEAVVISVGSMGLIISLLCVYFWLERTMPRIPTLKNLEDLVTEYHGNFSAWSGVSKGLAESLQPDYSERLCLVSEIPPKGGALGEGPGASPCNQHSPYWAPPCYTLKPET
Outline: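 Transfection 48 hr pre-assay; block PBS/CaMg/5% milk 1 hr RT; serially diluted IgG conditioned media 1 hr RT; HRP conjugate 1 hr RT; TMB to saturation, stop 0.18 M H₂SO₄.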

human soluble IL-4R = target: T2, human soluble IL-4R (human, UniProt P24394 26-232, limits assumed); test: BIACORE: antibody captured on anti-human IgG; 50 nM analyte injected
T2 construct: also called human sIL-4R
Description: (§1) The specificity of binding of a subset of transiently expressed anti-IL-21R binding proteins (here antibodies) was tested on a BIACORE™ 2000 surface plasmon resonance instrument. Anti-human-IgG, anti-murine immunoglobulin antibodies, and murine IL-21R-H/F were immobilized onto a research-grade carboxymethyl-dextran chip (CM5) using standard amine coupling. The sensor chip surface was activated with EDC/NHS for 7 min at a flow rate of 20 μl/min. The first flow cell was used as reference surface to correct for bulk refractive index, matrix effects, and nonspecific binding. […] Remaining activated groups were blocked with 1.0 M ethanolamine (pH 8.0). The molecular weights of the anti-human IgG and the anti-murine IgG were both 150 kD, and the molecular weight of the IL-21R monomer was 27 kD.
(§2) Conditioned media containing anti-IL-21R antibodies and antibody controls (murine anti-human IL-2Rβ and murine anti-human IL-4R(R&D Systems, Minneapolis, Minn.); human anti-human IL-13 (Wyeth, Cambridge, Mass.)) were diluted in HBS/EP buffer supplemented with 0.2% bovine serum and injected onto all four flow cells of the BIACORE™ chip, capturing 500-700 (RU) of antibody on the species-appropriate capture antibody. Following a 5 sec washing period, 50 nM solutions of a positive control protein (murine IL-21R-H/F), two human proteins related to IL-21R (human IL-2Rβ and human sIL-4R(R&D Systems)), or an unrelated His/FLAG-tagged protein (human IL-13-H/F) were injected over the captured antibodies on the chip. The association and dissociation phases were monitored for 120 and 180 sec, respectively, followed by two 5 μl injections of glycine (pH 1.5) to regenerate a fully active capturing surface. All binding experiments were done at 25° C. in HBS/EP buffer. Blank and buffer effects were subtracted for each sensorgram using double referencing.

human IL-2Rβ = target: T3, human IL-2Rβ (human, UniProt P14784 27-239); test: as above
T3 sequence (looked up): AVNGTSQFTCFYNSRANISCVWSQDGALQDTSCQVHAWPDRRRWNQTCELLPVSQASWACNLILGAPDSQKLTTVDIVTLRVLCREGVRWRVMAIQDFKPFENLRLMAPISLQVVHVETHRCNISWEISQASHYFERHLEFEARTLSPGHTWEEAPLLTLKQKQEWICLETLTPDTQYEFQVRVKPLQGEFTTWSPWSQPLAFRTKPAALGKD
Description: as §1, §2

human IL-13-His/FLAG = target: T4, human IL-13-His/FLAG (human, UniProt P35225 35-146, limits assumed); test: as above
T4 construct: Unrelated His/FLAG-tagged control; also called human IL-13-H/F
T4 sequence (P35225 35-146 limits assumed): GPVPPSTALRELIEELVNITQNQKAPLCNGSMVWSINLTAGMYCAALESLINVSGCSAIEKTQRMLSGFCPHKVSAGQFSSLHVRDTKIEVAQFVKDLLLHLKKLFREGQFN
Description: as §1, §2

[2] = target: T5, cynomolgus monkey IL-21R expressed on cells (cynomolgus monkey, UniProt G7Q0S8 41-559); test: cell-based ELISA on CHO cells transiently expressing cynomolgus monkey IL-21R; HRP anti-human IgG, A450
T5 construct: whole, on cells

[3] = target: T6, rat IL-21R expressed on cells (rat); test: cell ELISA, CHO cells
T6 construct: whole, on cells

[4] = target: T7, human IL-21R expressed on cells (human, UniProt Q9HBE5 20-538); test: cell ELISA, CHO cells
T7 construct: also called human IL-21R-BaF3; human IL-21R-TF1
T7 sequence (Q9HBE5 20-538 limits assumed): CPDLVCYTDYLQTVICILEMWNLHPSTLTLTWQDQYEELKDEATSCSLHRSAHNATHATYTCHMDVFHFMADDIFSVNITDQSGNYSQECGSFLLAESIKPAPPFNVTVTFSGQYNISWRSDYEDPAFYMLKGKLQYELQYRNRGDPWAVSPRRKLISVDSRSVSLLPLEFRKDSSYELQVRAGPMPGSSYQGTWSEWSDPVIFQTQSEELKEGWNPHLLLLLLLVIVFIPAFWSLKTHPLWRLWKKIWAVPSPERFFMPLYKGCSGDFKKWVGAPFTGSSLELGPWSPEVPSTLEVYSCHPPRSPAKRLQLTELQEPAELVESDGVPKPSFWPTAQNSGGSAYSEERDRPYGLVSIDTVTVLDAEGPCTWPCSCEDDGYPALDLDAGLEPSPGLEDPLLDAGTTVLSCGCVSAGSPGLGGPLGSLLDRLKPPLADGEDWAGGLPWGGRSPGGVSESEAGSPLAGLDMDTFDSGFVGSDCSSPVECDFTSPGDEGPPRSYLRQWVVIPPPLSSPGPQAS

[5] = target: T5, cynomolgus monkey IL-21R expressed on …; test: cell ELISA, CHO cells
[6] = target: T1, human gamma (γ) common chain expressed …; test: cell ELISA, CHO cells
[7] = target: murine IL-21R expressed on cells (murine, UniProt Q9JHX3 20-529); test: cell-based or functional assay
murine IL-21R expressed on cells, sequence (Q9JHX3 20-529 limits assumed): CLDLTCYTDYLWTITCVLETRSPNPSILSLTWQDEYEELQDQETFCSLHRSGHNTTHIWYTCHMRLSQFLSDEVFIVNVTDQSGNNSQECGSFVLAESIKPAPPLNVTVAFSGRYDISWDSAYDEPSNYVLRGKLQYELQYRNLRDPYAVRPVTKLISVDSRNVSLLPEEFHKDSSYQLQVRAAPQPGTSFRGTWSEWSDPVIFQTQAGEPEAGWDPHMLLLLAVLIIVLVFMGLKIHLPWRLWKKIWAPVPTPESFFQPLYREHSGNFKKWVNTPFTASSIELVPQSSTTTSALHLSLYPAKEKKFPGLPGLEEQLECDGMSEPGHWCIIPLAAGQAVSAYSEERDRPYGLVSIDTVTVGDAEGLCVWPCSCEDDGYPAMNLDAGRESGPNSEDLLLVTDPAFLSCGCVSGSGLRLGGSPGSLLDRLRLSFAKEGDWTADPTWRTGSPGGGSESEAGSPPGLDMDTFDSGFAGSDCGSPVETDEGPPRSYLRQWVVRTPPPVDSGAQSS

[8] = target: T7, human IL-21R expressed on cells; test: cell-based or functional assay

binding result [1]: no binding (tested: 40 nM)
binding result (human soluble IL-4R): no binding (tested: 50 nM)
binding result (human IL-2Rβ): no binding (tested: 50 nM)
binding result (human IL-13-His/FLAG): no binding (tested: 50 nM)
EC50 (read off the curve) [2]: ~0.5 nM
A450 (13 nM Ab) [3]: 1.1 A450
A450 (13 nM Ab) [4]: 1.11 A450
A450 (13 nM Ab) [5]: 1.36 A450
A450 (13 nM Ab) [6]: 0.108 A450
Murine IL-21R-BaF3 Proliferation IC50 [7]: 0.065 nM
Human IL-21R-BaF3 Proliferation IC50 [8]: 0.52 nM
Human IL-21R-TF1 Proliferation IC50 [8]: 2.91 nM
B1: AbO (antibody, human IgG1, V domains shown)
VH: QVQLQESGPGLVKPSETLSLTCAVSGYSISSGYYWGWIRQPPGKGLEWIGSISHTGNTYYNPPLKSRVTISVDTSKNQFSLKLSSVTAADTAVYYCARGGGISRPEYWGQGTLVTVSS
VL: SSELTQDPAVSVALGQTVRITCQGDSLRTYYASWYQQKPGQAPVLVIYGKHKRPSGIPDRFSGSSSGNTASLTITGAQAEDEADYYCVTRSAKGNPHVLFGGGTQLTVL
notes: CDR3 graft, residue limits derived as for m29; also called VHP/VL16; VHPTM/VL16
